# Assay results from US20220184120A1 (MINERVA BIOTECHNOLOGIES, published 2022).
# Residue numbers refer to the chain shown, from its start.
# T1: N-10 peptide (PSMGFR minus 10 amino acids from the N-terminus)
# T1 construct: also called N-10 PSMGFR; PSMGFR N-10
# T1 peptide: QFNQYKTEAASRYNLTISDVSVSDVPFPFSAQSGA
# T2: NME7-AB (recombinant) (Homo sapiens (Human), UniProt Q9Y5B8 92-376)
# T2 construct: the entry ends in a His tag; also called NM23-H7
# T2 sequence: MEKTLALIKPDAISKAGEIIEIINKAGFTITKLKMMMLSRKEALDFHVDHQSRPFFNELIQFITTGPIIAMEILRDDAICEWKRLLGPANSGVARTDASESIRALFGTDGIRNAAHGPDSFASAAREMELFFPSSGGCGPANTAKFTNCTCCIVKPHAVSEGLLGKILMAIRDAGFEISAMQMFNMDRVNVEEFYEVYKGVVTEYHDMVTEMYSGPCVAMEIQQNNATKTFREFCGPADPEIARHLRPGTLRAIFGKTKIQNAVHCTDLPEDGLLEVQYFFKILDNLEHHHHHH
# T3: N+20/C-27 peptide (20 amino acids added onto the N-terminus and 27 deleted from the C-terminus of PSMGFR)
# T3 peptide: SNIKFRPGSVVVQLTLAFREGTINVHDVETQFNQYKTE
# T4: C-10 peptide (PSMGFR minus 10 amino acids from the C-terminus)
# T4 construct: also called C-10 PSMGFR; PSMGFR C-10
# T4 peptide: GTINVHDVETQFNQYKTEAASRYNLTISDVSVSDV
# T5: N+9/C-9 peptide (9 amino acids added onto the N-terminus and 9 deleted from the C-terminus of PSMGFR)
# T5 peptide: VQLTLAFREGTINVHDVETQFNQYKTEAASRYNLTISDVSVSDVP
# B1: B2 mouse monoclonal antibody (antibody, V domains shown)
# VH: EVVLVESGGGLVEPGGSLKLSCVASGFAFSTFAMSWIRQTPEKRLEWVAAISNGGGYTYYPDTLKGRFSISRDNAKNTLYLQMSSLRSEDTAVYYCARRYYDLYFDLWGRGTSLIVSS
# VL: DILMTQTPLSLPVSLGDQASISCRSSQNIVHSNGNTYLEWYLQKPGQSPKLLIYKVSNRFSGVPDRFSGSGSGTDFTLKISRVEAEDLGVYYCFQDSHVPLTFGAGTRLELK
# notes: raised against PSMGFR; built from framework and CDR entries
# B2: B12 mouse monoclonal antibody (antibody, V domains shown)
# VH: QAQLKESGPGLVAPSQSLSITCTVSGFSLTSYGVHWVRQPPGKGLEWLGVIWPGGSTNYNSTLMSRMRIIKDNSKSQVFLKMNSLQIDDTAMYYCARDRTPRVGAWFAYWGQGTLVTVSA
# VL: IIVLTQSPASLAVSLGQRATISCRASESVATYGNNFMQWYQQKPGQPPKLLIYLASTLDSGVPARFSGSGSRTDFTLTIDPVEADDAATYYCQQNNEDPPTFGGGTKLEIK
# notes: as for B1
# B3: B9 mouse monoclonal antibody (antibody, V domains shown)
# VH: EVQVVESGGDLVKPGGSLKLSCAASGFTFSRYGMSWVRQTPDKRLEWVATISSGGTYIYYPDSVKGRFTISRDNAKNTLYLQMSSLKSEDTAMYYCARDNYGSSYDYAMDYWGQGTSVTVSS
# VL: QIVLTQSPAIMSASPGEEVTLTCSASSSVSYMHWFQQRPGTSPKLWIYTTSNLASGVPARFSGSGSGTSYSLTISRMEAEDAATYYCQQRSSYPFTFGSGTKLEIK
# notes: as for B1
# B4: 25E6 mouse monoclonal antibody (antibody, V domains shown)
# VH: EVQLVESGGDLVKPGGSLKLSCAASGFTFSSYGMSWVRQTPDKRLEWVATISNGGRHTFYPDSVKGRFTISRDNAKNTLYLQMSSLKSEDTAMYLCVRQTGTEGWFAYWGQGTLVTVSA
# VL: not shown
# notes: raised against PSMGFR; also called MN-25E6; anti-PSMGFR antibody 25E6
# B5: 28F9 mouse monoclonal antibody (antibody, V domains shown)
# VH: QVQLQQPGAELVQPGASVKLSCKASGYTFTGYFLYWVKQRPGHGLEWIGGIHPSNGDTDFNEKFKNKATLTVDISSSTAYMQLSSLTSEDSAVYYCTLLIGVYWGQGTTLTVSS
# VL: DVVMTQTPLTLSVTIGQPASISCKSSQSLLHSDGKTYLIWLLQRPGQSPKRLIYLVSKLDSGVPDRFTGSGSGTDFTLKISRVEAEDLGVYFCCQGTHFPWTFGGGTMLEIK
# notes: raised against PSMGFR; also called MN-28F9; anti-PSMGFR antibody 28F9
# B6: 18G12 mouse monoclonal antibody (antibody, V domains shown)
# VH: B5 VH with P7S, Q13K, H43Q, H52N, S54D, D57G, T58I, K65R, I74K, V102N
# VL: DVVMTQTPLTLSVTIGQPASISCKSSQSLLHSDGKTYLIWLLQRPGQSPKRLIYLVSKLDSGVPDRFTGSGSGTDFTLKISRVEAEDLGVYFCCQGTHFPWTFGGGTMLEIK
# notes: raised against PSMGFR; also called MN-18G12; anti-PSMGFR antibody 18G12
# B7: PSMGFR peptide (Primary Sequence of the MUC1 Growth Factor Receptor) (peptide)
# peptide: GTINVHDVETQFNQYKTEAASRYNLTISDVSVSDVPFPFSAQSGA
# notes: synthetic peptide immobilised on ELISA plates; also called MUC1* peptide; MUC1* extra cellular domain peptide
# B8: 3C2B1 mouse monoclonal antibody (antibody, V domains shown)
# VH: EVMLVESGGGLVKPGGSLKLSCAASGITFSTYTMSWVRQTPEKRLEWVATISTGGDKTYYSDSVKGRFTISRDNAKNNLYLQMSSLRSEDTALYYCARGTTAMYYYAMDYWGQGTSVTVSS
# VL: DIVLTQSPASLAVSLGQRATISCRASKSISTSDYNYIHWYQQKPGQPPKLLIYLASNLESGVPARFSGSGSGTDFTLNIHPVEEEDAATYYCQHSRELPLTFGAGTKLELK
# notes: raised against PSMGFR; also called MN-3C2B1; anti-PSMGFR antibody 3C2B1
# B9: 29H1 mouse monoclonal antibody (antibody, V domains shown)
# VH: EVKLEESGGGLVQPGGSMKLSCAASGFTFSDAWMDWVRQSPEKGLEWVAEIRSKATNHATYYAESVKGRFTISRDDSKSSVYLQMNSLRAEDTGIYYCTPLLYGFAYWGQGTLVTVSA
# VL: DVVMTQTPLSLPVSLGDQASISCRSGQSLVHSNGHTYLHWYLQKPGQSPRLLIYKVSNRFSGVPDRFSGSGSRADFTLKISRVEAEDLGVYFCSQTTHVPWTFGGGTKLEIK
# notes: raised against N+20/C-27; also called N+20/C-27 antibody 29H1
# B10: 32C1 mouse monoclonal antibody (antibody, V domains shown)
# VH: EVKLEESGGGLVQSGGSMKLSCVASGFTFSNYWMNWVRQSPEKGLEWVAEIRLKSNNYAIHYAESVKGRFTISRDDSKSSVYLQMNNLRAEDTGIYYCTRVPGLDAYWGQGTLVTVSA
# VL: B9 VL with G26S, H35N, R50K, R73G, A74T, R82S, T96I, W101Y, K108N
# notes: raised against N+20/C-27; also called N+20/C-27 antibody 32C1
# B11: 5C6F3 mouse monoclonal antibody (antibody, V domains shown)
# VH: EVMLVESGGGLVKPGGSLKLSCAASGFTFSTYAMSWVRQTPEKRLEWVAAISNGGGYTYYPDSLKGRFTISRDNAKNTLYLQMSSLRSEDTATYYCARRYYDHYFDYWGQGTALTVSS
# VL: B1 VL with I2V, N28T, R108K
# notes: raised against PSMGFR; also called MN-5C6F3; anti-PSMGFR antibody 5C6F3
# B12: 31A1 mouse monoclonal antibody (antibody, V domains shown)
# VH: QVQLQQSGAELAKPGASVKMSCKASGYTFTSYWMHWVKQRPGQGLEWIGYINPSTGYTEYNQKFKDKATLTADKSSSTAYMQLSSLTSEDSAVYYCARAYIDYWGQGTTLTVSS
# VL: B1 VL with I2V, I21F, N28S, S81N, D96V, V99F, L101W, A105G, R108K, L111I
# notes: raised against N+20/C-27; also called N+20/C-27 antibody 31A1
# B13: B7 mouse monoclonal antibody (antibody, V domains shown)
# VH: B3 VH
# VL: B1 VL with I2V, N28T, R108K
# notes: as for B1
# B14: H11 mouse monoclonal antibody (antibody, V domains shown)
# VH: B1 VH with S69T, R110Q
# VL: B1 VL
# notes: as for B1
# B15: 8C7F3 mouse monoclonal antibody (antibody, V domains shown)
# VH: B11 VH
# VL: B2 VL
# notes: as for B1
# Target: T1, N-10 peptide (PSMGFR minus 10 amino …)
# Test: ELISA (FIG. 201B)
# Method: (§1) FIG. 201A-201C show graphs of ELISA assays to determine the binding of another set of antibodies generated by immunizing animals with the PSMGFR peptide. […] F3, B12, B2, B7, B9, 8C7F3 and H11 all bound to the PSMGFR peptide and to the N−10 peptide.
# (§2) This same ELISA assay was performed on the antibodies of the invention (FIG. 64-66 and FIG. 201). Note that only 20A10 exactly matches the binding profile of MNC2 and MNE6. 25E6, 28F9 and 18G12 are all able to bind to the N−10 peptide. 18B4 is the only antibody raised against the PSMGFR peptide that requires the 10 most N-terminal amino acids of the peptide. The color of the bars for each antibody in the ELISA graph are color coded to match the deductive cognate sequence, or a portion thereof, of that antibody. In addition, another set of antibodies was assayed by ELISA (FIG. 201). Of this set, B12, B2, B7, B9, 8C7F3, and H11 bound to the PSMGFR peptide, bound to the N−10 peptide, but not to the C−10 peptide (FIG. 201). Although these antibodies were raised against the N+20/C−27 peptide, all but one, 45C11, still bind to the PSMGFR peptide, albeit at the N-terminal portion of PSMGFR.
row,Binder,binding result
1,B1,binds
2,B2,binds
3,B3,binds

# Target: T1, N-10 peptide (PSMGFR minus 10 amino …)
# Test: ELISA (FIG. 64)
row,Binder,binding result
1,B4,binds
2,B5,binds
3,B6,binds

# Target: T2, NME7-AB (recombinant)
# Test: ELISA (FIG. 2A)
# Method: FIGS. 2A-2I show results of ELISA assays. MUC1* peptides PSMGFR, PSMGFR minus 10 amino acids from the N-terminus aka N−10, or PSMGFR minus 10 amino acids from the C-terminus, aka C−10 are immobilized on the plate and the following are assayed for binding: NME7-AB (FIG. 2A), MN-C2 monoclonal antibody (FIG. 2B), MN-E6 monoclonal antibody (FIG. 2C), or dimeric NME1 (FIG. 2D). […] MUC1* peptides PSMGFR minus 10 amino acids from the N-terminus aka N−10, or PSMGFR minus 10 amino acids from the C-terminus, aka C−10, are immobilized on the plate and the following are assayed for binding: MN-C3 (FIG. 2E) and MN-C8 (FIG. 2F).
row,Binder,binding result
1,B7,binds

# Target: T1, N-10 peptide (PSMGFR minus 10 amino …)
# Test: ELISA
row,Binder,binding result
1,B8,binds
2,B9,no binding
3,B10,no binding
4,B11,binds
5,B12,no binding

# Target: T3, N+20/C-27 peptide (20 amino acids added …)
# Test: ELISA
row,Binder,binding result
1,B9,binds
2,B10,binds
3,B12,binds

# Target: T4, C-10 peptide (PSMGFR minus 10 amino …)
# Test: ELISA
row,Binder,binding result
1,B8,no binding
2,B9,binds
3,B10,binds
4,B12,binds
5,B5,binds
6,B6,binds

# Target: B7
# Test: ELISA
row,Binder,binding result
1,B8,binds
2,B11,binds
3,B4,binds
4,B5,binds
5,B6,binds

# Target: B7
# Test: ELISA (FIG. 201A)
row,Binder,binding result
1,B1,binds
2,B2,binds
3,B3,binds

# Target: T4, C-10 peptide (PSMGFR minus 10 amino …)
# Test: ELISA (FIG. 201C)
# Method: as §1, §2
row,Binder,binding result
1,B1,no binding
2,B13,no binding
3,B14,no binding
4,B2,no binding
5,B15,no binding
6,B3,no binding

# Target: T5, N+9/C-9 peptide (9 amino acids added …)
# Test: ELISA (FIG. 64A)
row,Binder,binding result
1,B4,binds
2,B5,binds
3,B6,binds

# Target: B7
# Test: ELISA (FIG. 65)
row,Binder,binding result
1,B9,binds
2,B10,binds
3,B12,binds
